The series addresses T1, HapR (Vibrio cholerae E7946 (El Tor)) (UniProt Q4F6W7).
T1 sequence: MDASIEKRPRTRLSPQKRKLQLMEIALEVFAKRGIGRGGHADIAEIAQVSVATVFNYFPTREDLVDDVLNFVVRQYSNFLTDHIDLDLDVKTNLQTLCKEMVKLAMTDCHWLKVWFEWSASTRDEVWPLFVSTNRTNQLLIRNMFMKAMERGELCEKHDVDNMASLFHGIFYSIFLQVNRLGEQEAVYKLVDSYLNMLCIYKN
Kind of series: EMSA. Particulars: 1-2 internal Cy5-dCTP incorporated by PCR. (A gel shift assay detects complexes by their altered migration in electrophoresis.)

Take “TAAGCAAACTGTAGCGTAGAAGGTTGACGAAACAAGCAATCATCTGCTAACAATGGTCCGTGTGATACCCATCATCCGGGCCATTTATTTTAGGGATATAAGACTATGAGCTACCAAGAAAAAAATGCA (double strand) [PclpP promoter probe]”: the binding result is “no binding”.

(Values after publication doi:10.1101/2020.04.16.045526.)
